Results on 55 sequences are retold here after the supplement of paper PMC11780869.

The data set has as its system Bacillus subtilis. The data set is described as follows: cleaved RNA product abundance (RNA/gDNA barcode ratio) relative to median wild-type variant (ratio to wild type); higher = more accumulation of the downstream cleavage product. Put shortly: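 Cleaved product abundance is expressed as the RNA:gDNA barcode ratio per construct, scaled to the median construct carrying the unmutated site. The constructs were barcoded, mutagenized RNase Y cleavage-site windows in truncated aprE or tetM reporter mRNAs integrated into the B. subtilis chromosome. Cultures grew in LB at 37°C from OD600 0.0003 to 0.3 before cleaved RNA was gel-selected and barcode-sequenced.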

[1] abbreviates: experiment (reporter, strain, medium): exp 8a: truncated aprE reporter, strain BJT201 with 2% xylose (RNase J1 expressed), cleavage site: glnRA (positions -5 to +31 mutated).
The mark [2] stands for this setting: experiment (reporter, strain, medium): exp 4a: truncated aprE reporter, strain BJT201 with 2% xylose (RNase J1 expressed), cleavage site: cggR-gapA (positions -7 to +36 mutated).
The mark [3] stands for this setting: experiment (reporter, strain, medium): exp 2b: truncated aprE reporter, strain BJT200, cleavage site: cggR-gapA (positions -7 to +36 mutated).

With “CGACATGTCCCGCTTCTTTCATTAATCCGTTAGCAACTTTTTTGTTATATACATTTACCTTTTAAGAGGAGGAAT”, under setting [1], the “cleaved RNA product abundance” value was found to be 0.748.
As for “ACAGACGAAGGAGCCGCAAAGAAGTTATTAAGGGAGAATAATCCCTCAATATAAATATCTCTCACTTATTTAAAG”, the “cleaved RNA product abundance” value under setting [2] stood at 0.471.
As for “ACAGACGAAGGAGCCGCAAAGAAGTTAATAAGGGATGAATAATCCCTCAATATAAATACCTCTCACTTATTTAAA”, under setting [2], the “cleaved RNA product abundance” value came to 0.201.
For the sequence “CGACATGTCCCGCTTCTTTCATTATTCCGATATCAATTGTTTCGCTATATACATTTACCTTTTAAGAGGAGGAAT”, the “cleaved RNA product abundance” value under setting [1] stood at 0.147.
Still for that read-out and setting: the figure for “CGACATGTCCCGCTTCTTTCATTAATCCGTTAGCAACTGTTTTGCTATATACATTTAGCTTTTAAGAGGAGGAAT” is 1.07; for “CGACATGTCCCGCTTCTTTCATTAATCCGTTAGCAACTGTTTTGCTATATACATTTACCCTTTTAAGAGGAGGAA” it is 0.756.
In the case of “ACAGACGAAGGAGCCGCAAAGTAGTAATTAAGGGATGAATAATCCCTCAATATAAATATCTCTCACTTATTTAAA”, under setting [2], the “cleaved RNA product abundance” value is 0.191.
In the case of “ACAGACGAAGGAGCCGCAAAGAAGTTATTAAGGCATGAATAATCCCTCAATTTAAATATCTCTCACTTATTTAAA”, the “cleaved RNA product abundance” value was found to be 0.059 under setting [3] and 0.0584 under setting [2].
Consider “CGACATGTCCCGCTTCTTTCATTATTCCGTTAGCAACTGTTTTGCTATACACATTTACCTTTTAAGAGGAGGAAT”, for which the “cleaved RNA product abundance” value under setting [1] stood at 0.807.
On to “ACAGACGAAGGAGCCGCAAAGAAGTTATTAAGGCATGAATAATCCATCAATATAAATATCTCTCACTTATTTAAA”, for which the “cleaved RNA product abundance” value by setting is: under setting [3], 0.102; under setting [2], 0.114.
For the sequence “ACAGACGAAGGAGCCGCAAAGAAGTTATGAAGGGATGAATAATCCCTTAATATAAATATCTCTCACTTATTTAAA”, the “cleaved RNA product abundance” value under setting [2] turned out to be 0.789.
Take “ACAGACGAAGGAGCCGCAAAGATGTTATTAAGGGATGAATAATCCCTCTATATAAATATCTCTCACTTATTTAAA”: under setting [2], the “cleaved RNA product abundance” value came out at 0.447.
Regarding “ACAGACGAAGGAGCCGCAAAGCAGTTATTAAGGGATGAATAATCCCTCAATATAAATATCTCTCACTTATTTAAA”, the “cleaved RNA product abundance” value amounted to 0.905 under setting [3]; 0.958 under setting [2]; 0.944 (experiment (reporter, strain, medium): exp 6: tetM reporter, strain 168, cleavage site: cggR-gapA (positions -7 to +36 mutated)).
Turning to “CGACATGTCCCGCTTCTTTCATTAATCCGTTAGCAACTGTTTTGCGATATACATTTACCTTTTAAGAGGAGGAAT”, the “cleaved RNA product abundance” value under setting [1] came out at 0.406.
Still for that read-out and setting: the figure for “CGACATGTCCCGCTTCTTTCATTAATCCGTTAGCAACTGTTTTGTTATATACATTGACCTTTTAAGAGGAGGAAT” is 2.01.
Turning to “ACAGACGAAGGAGCCGCAAAGAACTTATTAAAGGATGAATAATCCCTCAATATAAATATCTCTCACTTATTTAAA”, the “cleaved RNA product abundance” value under setting [3] is 0.166.
Take “CGACATGTCCCGCTTCTTTCATTACTCCGTTAGCAACTGTGTTGCTATATACATTTACCTTTTAAGAGGAGGAAT”: the “cleaved RNA product abundance” value under setting [1] was 0.327.
On to “CGACATGTCCCGCTTCTTTCATTAATACGTTAGCAACTGTTTTGCTAAATACATTTACCTTTTAAGAGGAGGAAT”, for which, under setting [1], the “cleaved RNA product abundance” value is 0.266.
Same read-out and setting: the figure for “CGACATGTCCCGCTTCTTTCATTAATCCGTTAACAACTGTTTTGCTATAAACATTTACCTTTTAAGAGGAGGAAT” is 0.207; for “CGACATGTCCCGCTTCTTTCATTAATCCGTTAGCAACTGTTTAGCTATATACATTTACATTTTAAGAGGAGGAAT” it is 0.588.
Turning to “ACAGACGAAGGAGCCGCAAAGAATTTATTATGGGATGAATAATCCCTCAATATAAATATCTCTCACTTATTTAAA”, the “cleaved RNA product abundance” value is, setting by setting: under setting [3], 0.266; under setting [2], 0.292.
In the case of “ACAGACGAAGGAGCCGCAAAGAAATTATTAAGAGATGAATTATCCCTCAATATAAATATCTCTCACTTATTTAAA”, the “cleaved RNA product abundance” value under setting [2] stood at 0.121.
On the same count and under the same terms, the figure for “ACAGACGAAGGAGCCGCAAAGAAGTTATTTAGGGATGAATAATCCCTCAATATAAACATCTCTCACTTATTTAAA” is 0.701.
For the sequence “CGACATGTCCCGCTTCTTTCATTAATCCGTTAGCAACCGTTTTGCAATATACATTTACCTTTTAAGAGGAGGAAT”, the “cleaved RNA product abundance” value under setting [1] amounted to 0.344.
In the case of “ACAGACGAAGGAGCCGCAAAGAAGTTATTAAGGGATGAATAATCCCACAATATAAATAACTCTCACTTATTTAAA”, the “cleaved RNA product abundance” value under setting [3] is 0.231.
As to “ACAGACGAAGGAGCCGCAAAGAAGTTATTAAGGGATGAATAATACCTCAAGATAAATATCTCTCACTTATTTAAA”, the “cleaved RNA product abundance” value under setting [3] worked out at 0.102 and the “cleaved RNA product abundance” value under setting [2] came to 0.124.
On to “CGACATGTCCCGCTTCTTTCATTAATCCTTTAGCAACTGTTTTACTATATACATTTACCTTTTAAGAGGAGGAAT”, for which the “cleaved RNA product abundance” value under setting [1] is 0.513.
Turning to “ACAGACGAAGGAGCCGCAATGAAATTATTAAGGGATTAATAATCCCTCAATATAAATATCTCTCACTTATTTAAA”, the “cleaved RNA product abundance” value under setting [2] was found to be 0.695.
“ACAGACGAAGGAGCCGCAAAGAAGTTATTAAGGGATGAATAATCCTTCAACATAAATATCTCTCACTTATTTAAA”: the “cleaved RNA product abundance” value under setting [3] amounted to 0.159.
On to “CGACATGTCCCGCTTCTTTCATTAATCCGTTAGCAACTGTTTTGCTGTATAAATTTACCTTTTAAGAGGAGGAAT”, for which the “cleaved RNA product abundance” value under setting [1] worked out at 0.199.
In the case of “ACAGACGAAGGAGCCGCAAAGAAGTTATTAAGGGATAAATAATCCCTCAATATAAAAATCTCTCACTTATTTAAA”, the “cleaved RNA product abundance” value under setting [2] was found to be 0.943.
The same measure, in the same setting: the figure for “ACAGACGAAGGAGCCGCAAAGAAGTTATTAAGGGATGAATAACCCCTCAATATATATATCTCTCACTTATTTAAA” is 0.739.
In the case of “CGACATGTCCCGCTTCTTTCATTAATCCGTTAGCAACTGTTATGCTATATACATTTACTTTTTAAGAGGAGGAAT”, under setting [1], the “cleaved RNA product abundance” value came to 1.33.
Take “ACAGACGAAGGAGCCGCAAAGAAGTTATTGAGGGATGAATTATCCCTCAATATAAATATCTCTCACTTATTTAAA”: under setting [2], the “cleaved RNA product abundance” value stood at 0.0896.
Still for that read-out and setting: the figure for “ACAGACGAAGGAGCCGCAAAGAAGTTGTTAAGGAATGAATAATCCCTCAATATAAATATCTCTCACTTATTTAAA” is 0.136.
Still for that read-out and setting: the figure for “ACAGACGAAGGAGCCGCAGAGAAGTTATCAAGGGATGAATAATCCCTCAATATAAATATCTCTCACTTATTTAAA” is 0.328; for “ACAGACGAAGGAGCCGCAAAGAAGTTATTAAGGGAATGAATAATCCCTCAATATAAATATCTCTCACTTATTTAA” it is 0.604.
As to “ACAGACGAAGGAGCCGCAAAGAAGTTATTAACGGATGAATAATCCCTCAATATAAAAATCTCTCACTTATTTAAA”, the “cleaved RNA product abundance” value reads like this: under setting [3], 0.156; under setting [2], 0.116.
In the case of “CGACATGTCCCGCTTCTTTCATTAATCCGTTTACAACTGTTTTGCTATATACATTTACCTTTTAAGAGGAGGAAT”, the “cleaved RNA product abundance” value under setting [1] turned out to be 0.276.
Same read-out and setting: the figure for “CGACATGTCCCGCTTCTTTCATTAATCCGTTAGCAACTTTTTTGCTATATACATTTACCTTTTAAGAGGAGGAAT” is 1.24.
For “ACAGACGAAGGAGCCGCTAAGAAGTTATTAATGGATGAATAATCCCTCAATATAAATATCTCTCACTTATTTAAA”, under setting [2], the “cleaved RNA product abundance” value was 0.172.
As to “CGACATGTCCCGCTTCTTTCATTATTCCGTTAGCTACTGTTTTGCTATATACATTTACCTTTTAAGAGGAGGAAT”, the “cleaved RNA product abundance” value under setting [1] was found to be 0.764.
Same read-out and setting: the figure for “CGACATGTCCCGCTTCTTTCATTAATCCGTTAACAACTGTTTTGCTATATACATTTACCCTTTAAGAGGAGGAAT” is 0.198.
On to “ACAGACGAAGGAGCCGCAAAAAAGTTATTAAGGGATGAATAATTCCTCTATATAAATATCTCTCACTTATTTAAA”, for which, under setting [2], the “cleaved RNA product abundance” value stood at 0.264.
For the sequence “ACAGACGAAGGAGCCGCAAAGAAGTTCTTAAGGGATAAATAATCCCTCAATATAAATATCTCTCACTTATTTAAA”, the “cleaved RNA product abundance” value was determined as 0.104 under setting [3] and 0.212 under setting [2].
In the case of “ACAGACGAAGGAGCCGCACAGAAGTAATTAAGGGATGAATAATCCCTCAATATAAATATCTCTCACTTATTTAAA”, the “cleaved RNA product abundance” value under setting [2] amounted to 0.391.
Take “ACAGACGAAGGAGCCGCTAAGAAGTTATTAAGGGATGAATAATCCCTCAACATAAATATCTCTCACTTATTTAAA”: the “cleaved RNA product abundance” value under setting [2] came out at 0.291.
Same read-out and setting: the figure for “ACAGACGAAGGAGCCGCAAATAAGTTATTAAGGGATGAATAATCGCTCAATATAAATATCTCTCACTTATTTAAA” is 0.121.
Regarding “ACAGACGAAGGAGCCGCAAAGAAGTTATTAAGGCATGAATAATCCCCCAATATAAATATCTCTCACTTATTTAAA”, the “cleaved RNA product abundance” value is 0.11 under setting [3] and 0.0993 under setting [2].
For “ACAGACGAAGGAGCCGCAAAGAAGTTAATAAGGGACGAATAATCCCTCAATATAAATATCTCTCACTTATTTAAA”, in that order: 0.154 and 0.164.
Consider “ACAGACGAAGGAGCCGCAAAGAAGTTATTAAGCGATGAATAATCCCTTAATATAAATATCTCTCACTTATTTAAA”, for which the “cleaved RNA product abundance” value under setting [2] is 0.301.
As for “CGACATGTCCCGCTTCTTTCATTAATCCCTTAGCAACTGTTTTGCTATATTCATTTACCTTTTAAGAGGAGGAAT”, under setting [1], the “cleaved RNA product abundance” value amounted to 0.153.
Turning to “ACAGACGAAGGAGCCGCAAAGAAGTTATTAAAGGATAAATAATCTCTCAATATAAATATCTCTCACTTATTTAAA”, the “cleaved RNA product abundance” value under setting [2] is 0.112.
In the case of “ACAGACGAAGGAGCCGCAAAAAAATTATTAAGGGATGAATAATCCCTCAATATAAATATCTCTCACTTATTTAAA”, the “cleaved RNA product abundance” value worked out at 1.1 under setting [3] and 1.04 under setting [2].
For “ACAGACGAAGGAGCCGCAAAGAAGATATTAAAGGATGAATAATCCCTCAATATAAATATCTCTCACTTATTTAAA”, the “cleaved RNA product abundance” value under setting [3] came to 0.199 and the “cleaved RNA product abundance” value under setting [2] amounted to 0.264.
